Patent US20180110875A1 (SUZHOU SUNCADIA BIOPHARMACEUTICALS, published 2018)

How the values were obtained:
[1] = molecular target: T1, human c-Met expressed on cells (human, UniProt P08581 25-1390); experiment: cell-based or functional assay
[2] = molecular target: T1, human c-Met expressed on cells; experiment: cell-based or functional assay; remark: listed apart in the source
[3] = molecular target: T1, human c-Met expressed on cells; experiment: cell-based or functional assay; remark: listed apart in the source
[4] = molecular target: T2, Human c-Met ECD His Tag (Human c-Met ECD-his) recombinant protein (human, UniProt P08581 25-932); experiment: ELISA, human c-Met-His coated at 2 ug/ml
T2 construct: extracellular domain; Expressed in 293F cells; also called human c-Met-His; not shown: C-terminal His tag
T2 sequence (P08581 25-932): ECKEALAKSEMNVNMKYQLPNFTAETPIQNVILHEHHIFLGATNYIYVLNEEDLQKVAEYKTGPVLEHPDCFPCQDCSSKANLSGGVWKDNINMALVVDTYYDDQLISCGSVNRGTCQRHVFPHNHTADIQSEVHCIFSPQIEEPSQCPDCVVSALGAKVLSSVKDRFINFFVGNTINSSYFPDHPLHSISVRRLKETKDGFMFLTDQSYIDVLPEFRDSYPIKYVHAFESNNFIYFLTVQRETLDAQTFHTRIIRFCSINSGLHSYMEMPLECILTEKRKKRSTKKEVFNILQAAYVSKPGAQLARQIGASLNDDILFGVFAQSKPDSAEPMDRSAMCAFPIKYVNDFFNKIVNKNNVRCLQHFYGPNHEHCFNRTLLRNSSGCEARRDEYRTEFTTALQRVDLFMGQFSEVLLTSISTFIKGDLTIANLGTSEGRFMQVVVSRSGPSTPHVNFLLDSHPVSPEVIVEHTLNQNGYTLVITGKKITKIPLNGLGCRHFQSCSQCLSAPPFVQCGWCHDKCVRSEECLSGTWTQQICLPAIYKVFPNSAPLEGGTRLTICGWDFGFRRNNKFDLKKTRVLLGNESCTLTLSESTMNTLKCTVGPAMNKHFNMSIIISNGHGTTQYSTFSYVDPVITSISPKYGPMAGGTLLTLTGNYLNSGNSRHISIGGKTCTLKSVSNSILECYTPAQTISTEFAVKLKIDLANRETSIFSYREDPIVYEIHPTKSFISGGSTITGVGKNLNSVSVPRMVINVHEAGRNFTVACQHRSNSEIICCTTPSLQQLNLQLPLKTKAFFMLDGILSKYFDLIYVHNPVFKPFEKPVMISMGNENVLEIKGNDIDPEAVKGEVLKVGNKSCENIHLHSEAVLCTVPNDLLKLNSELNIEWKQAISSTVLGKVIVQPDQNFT

[5] = molecular target: T3, Human c-Met extracellular region (ECD) and murine Fc region fusion protein (Human c-Met ECD-mFc) (human, UniProt P08581 25-932); experiment: blocking ELISA of HGF/c-Met binding: c-Met ECD-mFc coated, antibody titrated, human HGF 20 ng/ml
T3 construct: extracellular domain; Expressed in 293F cells; not shown: murine Fc region
T3 sequence (P08581 25-932): as above
Experimental: c-Met ECD-mFc (Example 1) was diluted in PBS (Hyclone, Cat #SH30256.01B) with a final concentration of 2 μg/ml, and then a 96-well ELISA plate (Costar, cat#2592) was coated with c-Met ECD-mFc at room temperature overnight. The plate was washed with PBST (PBS+0.05% tween 20, Simga, Cat#P1379) 3 times on a plate washer (Suppler: BioTex; Model: ELX405; S/N: 251504). 300 μl blocking solution PBS+1% BSA (Roche, Cat #738328) was added to the 96-well plate, and the plate was incubated for 60 minutes at 37° C. After the plate was washed with PBST 3 times, 50 μl of antibody diluted by blocking solution was added to the 96-well plate, and the plate was incubated for 90 minutes at 37° C. […] After the plate was washed with PBST 3 times, 100 μl of horseradish peroxidase (ebioscience, #18-4100-51) diluted with blocking solution was added to the 96-well plate and incubated for 30 minutes. After the plate was washed with PBST 3 times, 100 μl substrate (ebioscience, cat#00-4201-56) was added to the plate and incubated for 10 minutes at room temperature. 100 μl stop solution (2N H₂SO₄) was added, and data was read by a […] microplate reader (Supplier: Moleculer Devices; Model: MNR0643; Equip ID: TMRP001). Data analysis was performed by SoftMax Pro v5.

[6] = molecular target: T4, Human c-Met extracellular Sema region and Flag-His tag (Human c-Met Sema-Flis) (human, UniProt P08581 25-515, limits assumed); experiment: SPR (Biacore), antibody captured by anti-human IgG, Sema-His 200-0.78 nM as analyte, 1:1 Langmuir
T4 construct: domain: extracellular Sema region; Expressed in 293F cells; also called Sema-His; c-Met antigen Sema-His; not shown: C-terminal Flag-His tag
T4 sequence (P08581 25-515 limits assumed): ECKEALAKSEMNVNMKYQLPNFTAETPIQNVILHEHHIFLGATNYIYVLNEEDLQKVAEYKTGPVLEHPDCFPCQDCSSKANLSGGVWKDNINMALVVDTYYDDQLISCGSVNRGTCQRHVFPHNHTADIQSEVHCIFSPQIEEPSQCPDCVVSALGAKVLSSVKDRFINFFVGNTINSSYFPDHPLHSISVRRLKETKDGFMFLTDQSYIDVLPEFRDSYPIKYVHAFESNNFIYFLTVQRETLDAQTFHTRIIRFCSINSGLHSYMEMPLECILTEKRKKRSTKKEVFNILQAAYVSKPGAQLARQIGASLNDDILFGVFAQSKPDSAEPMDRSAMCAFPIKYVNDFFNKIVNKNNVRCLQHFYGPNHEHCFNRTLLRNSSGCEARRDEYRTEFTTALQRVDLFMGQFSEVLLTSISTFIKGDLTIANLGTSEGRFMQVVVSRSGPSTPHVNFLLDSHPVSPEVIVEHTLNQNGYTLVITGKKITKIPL
Experimental: Anti-mouse IgG (GE Life Sciences catalog # BR-1008-38) or anti-human IgG (GE Life Sciences catalog # BR-1008-39) antibodies were respectively diluted to 30 μg/ml and 50 μg/ml by sodium acetate solution, pH 5.0 (GE Healthcare, Cat#BR-1003-51). An amino coupling kit (GE Life Sciences, Cat#BR100050) was immobilized onto the test channels and control channels on a CMS chip (GE Life Sciences catalog # BR-1000-12), and the coupling level was set at 15000RU. Running buffer PBS (Hyclone, Cat#SH30256.01B)+0.05% P20 (GE Life Sciences, Cat#BR-1000-54) was used to dilute the c-Met antibody to 1.5 μg/ml. Antigen Sema-His was diluted to 200 nM with running buffer, and then diluted at a 1:2 dilution with the same buffer until it reached 0.78 nM. The diluted antibody passed through the test channel for 1 minute at a speed of 30 μl/min, and the antigen passed through the test channels and control channels for 3 minutes at the same speed. After 10 minutes of dissociation, the flow speed was adjusted to 10 μl/min, and regeneration buffer was passed through test channels and control channels for 3 minutes. Data was fitted by BiaEvaluation 4.1 after double deduction, and the fitting model was a 1:1 Langmuir model.

T1 sequence (P08581 25-1390): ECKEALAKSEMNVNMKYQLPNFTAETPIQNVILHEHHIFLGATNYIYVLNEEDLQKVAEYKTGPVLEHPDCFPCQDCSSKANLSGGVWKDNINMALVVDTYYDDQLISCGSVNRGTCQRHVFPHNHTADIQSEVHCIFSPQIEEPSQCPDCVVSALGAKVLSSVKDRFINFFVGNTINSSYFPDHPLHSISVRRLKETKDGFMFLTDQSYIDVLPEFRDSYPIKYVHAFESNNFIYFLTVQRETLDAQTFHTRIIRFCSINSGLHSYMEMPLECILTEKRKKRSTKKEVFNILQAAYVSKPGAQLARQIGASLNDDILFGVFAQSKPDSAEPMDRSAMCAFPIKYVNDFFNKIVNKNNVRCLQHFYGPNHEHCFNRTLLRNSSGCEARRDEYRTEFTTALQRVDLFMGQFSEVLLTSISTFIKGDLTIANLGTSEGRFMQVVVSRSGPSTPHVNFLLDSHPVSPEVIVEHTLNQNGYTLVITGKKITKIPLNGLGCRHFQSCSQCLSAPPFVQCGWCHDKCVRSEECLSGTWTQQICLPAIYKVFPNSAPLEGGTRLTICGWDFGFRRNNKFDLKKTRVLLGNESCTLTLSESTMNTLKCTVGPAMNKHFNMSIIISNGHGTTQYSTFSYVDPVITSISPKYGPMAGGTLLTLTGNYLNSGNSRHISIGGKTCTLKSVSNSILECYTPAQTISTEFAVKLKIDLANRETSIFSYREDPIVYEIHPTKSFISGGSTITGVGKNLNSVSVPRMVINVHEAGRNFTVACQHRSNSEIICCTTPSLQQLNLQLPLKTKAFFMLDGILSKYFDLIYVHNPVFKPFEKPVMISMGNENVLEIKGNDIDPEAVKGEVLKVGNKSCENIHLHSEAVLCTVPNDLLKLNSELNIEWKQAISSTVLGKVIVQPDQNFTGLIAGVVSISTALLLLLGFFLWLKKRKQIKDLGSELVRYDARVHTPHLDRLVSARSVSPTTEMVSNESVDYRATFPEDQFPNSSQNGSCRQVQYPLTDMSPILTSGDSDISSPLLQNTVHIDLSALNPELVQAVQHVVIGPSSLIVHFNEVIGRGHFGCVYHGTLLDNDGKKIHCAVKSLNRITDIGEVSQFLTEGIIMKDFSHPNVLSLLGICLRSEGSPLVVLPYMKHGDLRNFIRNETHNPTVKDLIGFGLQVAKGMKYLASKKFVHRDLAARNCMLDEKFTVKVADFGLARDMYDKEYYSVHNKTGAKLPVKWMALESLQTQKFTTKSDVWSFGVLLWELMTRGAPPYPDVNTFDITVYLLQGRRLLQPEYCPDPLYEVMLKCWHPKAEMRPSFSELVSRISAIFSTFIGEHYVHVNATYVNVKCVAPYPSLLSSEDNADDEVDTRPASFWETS

B1: Anti-c-Met antibody Ab-10-toxin MC-MMAF conjugate (antibody, human IgG2, kappa, V domains shown)
VH: QVQLVESGGGVVQPGRSLRLSCAASGFSLSNYGVHWVRQAPGKGLEWLAVIWSGGSTNYAAAFVSRLTISKDNSKNTVYLQMNSLRAEDTAVYYCARNHDNPYNYAMDYWGQGTTVTVSS
VL: DIVLTQSPDSLAVSLGERATINCRADKSVSTSTYNYLHWYQQKPGQPPKLLIYLASNLASGVPDRFSGSGSGTDFTLTISSLQAEDVAVYYCQHSRDLPPTFGQGTKLEIKR
modifications: MC-MMAF coupled through a propyl mercaptan linker put on the antibody; average y=1.7 per antibody; chain and residues not stated
IC50 (nM) in MKN45 cell (cytotoxicity, ATP assay) [1]: 0.51 nM | Inhibition of proliferation of BxPC3 cells (CCK), IC50 [2]: 6.9 nM | Inhibition of proliferation of Caki-1 cells (CCK), IC50 [2]: 6.5 nM | Inhibition of proliferation of MKN45 cells (CCK), IC50 [2]: 0.17 nM | Inhibition of proliferation of NCI-H596 cells (CCK), IC50 [2]: 104 nM | Inhibition of proliferation of NCI-H1993 cells (CCK), IC50 [2]: 2.8 nM | Inhibition of proliferation of PC9 cells (CCK), IC50 [2]: 5.6 nM | Inhibition of proliferation of SNU5 cells (CCK), IC50 [2]: 0.24 nM

B2: Anti-c-Met antibody Ab-10-toxin conjugate (Example 24) (antibody, V domains shown)
VH: QVQLVESGGGVVQPGRSLRLSCAASGFSLSNYGVHWVRQAPGKGLEWLAVIWSGGSTNYAAAFVSRLTISKDNSKNTVYLQMNSLRAEDTAVYYCARNHDNPYNYAMDYWGQGTTVTVSS
VL: DIVLTQSPDSLAVSLGERATINCRADKSVSTSTYNYLHWYQQKPGQPPKLLIYLASNLASGVPDRFSGSGSGTDFTLTISSLQAEDVAVYYCQHSRDLPPTFGQGTKLEIKR
modifications: toxin intermediate 12h (maleimidocaproyl derivative of toxin 12g) coupled through a propyl mercaptan linker put on the antibody; average y=1.6 per antibody; chain and residues not stated
IC50 (nM) in MKN45 cell (cytotoxicity, ATP assay) [1]: 0.59 nM

B3: Ab-10 humanized antibody (antibody, human IgG2, kappa)
heavy: QVQLVESGGGVVQPGRSLRLSCAASGFSLSNYGVHWVRQAPGKGLEWLAVIWSGGSTNYAAAFVSRLTISKDNSKNTVYLQMNSLRAEDTAVYYCARNHDNPYNYAMDYWGQGTTVTVSSASTKGPSVFPLAPCSRSTSESTAALGCLVKDYFPEPVTVSWNSGALTSGVHTFPAVLQSSGLYSLSSVVTVPSSNFGTQTYTCNVDHKPSNTKVDKTVERKCCVECPPCPAPPVAGPSVFLFPPKPKDTLMISRTPEVTCVVVDVSHEDPEVQFNWYVDGVEVHNAKTKPREEQFNSTFRVVSVLTVVHQDWLNGKEYKCKVSNKGLPAPIEKTISKTKGQPREPQVYTLPPSREEMTKNQVSLTCLVKGFYPSDIAVEWESNGQPENNYKTTPPMLDSDGSFFLYSKLTVDKSRWQQGNVFSCSVMHEALHNHYTQKSLSLSPGK
light: DIVLTQSPDSLAVSLGERATINCRADKSVSTSTYNYLHWYQQKPGQPPKLLIYLASNLASGVPDRFSGSGSGTDFTLTISSLQAEDVAVYYCQHSRDLPPTFGQGTKLEIKRTVAAPSVFIFPPSDEQLKSGTASVVCLLNNFYPREAKVQWKVDNALQSGNSQESVTEQDSKDSTYSLSSTLTLSKADYEKHKVYACEVTHQGLSSPVTKSFNRGEC
notes: human constant regions, kappa light chain
Activity of inhibition of MKN45 cell proliferation, IC50 [3]: 0.55 nM | Inhibition of proliferation of BxPC3 cells (CCK), IC50 [2]: > 1000 nM | Inhibition of proliferation of Caki-1 cells (CCK), IC50 [2]: > 1000 nM | Inhibition of proliferation of MKN45 cells (CCK), IC50 [2]: 0.15 nM | Inhibition of proliferation of NCI-H596 cells (CCK), IC50 [2]: 13.7 nM | Inhibition of proliferation of PC9 cells (CCK), IC50 [2]: > 1000 nM | Inhibition of proliferation of SNU5 cells (CCK), IC50 [2]: 0.1 nM | EC50 [4]: 0.39 nM | IC50 [5]: 1.5 nM | Kd [6]: 8 nM

B4: Ab-11 humanized antibody (antibody, human IgG2, kappa, V domains shown)
VH: QVQLVESGGGVVQPGRSLRLSCAASGFTLPNYGVHWVRQAPGKGLEWLAVIWSGGSTNYAAAFVSRLTISKDNSKNTVYLQMNSLRAEDTAVYYCARNHDNPYNYAMDYWGQGTTVTVSS
VL: DIVLTQSPDSLAVSLGERATINCRANKSVSTSTYNYLHWYQQKPGQPPKLLIYLASNLASGVPDRFSGSGSGTDFTLTISSLQAEDVAVYYCQHSRDLPPTFGQGTKLEIKR
notes: as for B3
EC50 [4]: 0.2 nM

B5: Ab-9 humanized antibody (antibody, human IgG2, kappa)
heavy: QVTLKESGPVLVKPTETLTLTCTVSGFSLPNYGVHWVRQPPGKALEWLAVIWSGGSTNYAAAFVSRLRISKDTSKSQVVFTMNNMDPVDTATYYCARNHDNPYNYAMDYWGQGTTVTVSSASTKGPSVFPLAPCSRSTSESTAALGCLVKDYFPEPVTVSWNSGALTSGVHTFPAVLQSSGLYSLSSVVTVPSSNFGTQTYTCNVDHKPSNTKVDKTVERKCCVECPPCPAPPVAGPSVFLFPPKPKDTLMISRTPEVTCVVVDVSHEDPEVQFNWYVDGVEVHNAKTKPREEQFNSTFRVVSVLTVVHQDWLNGKEYKCKVSNKGLPAPIEKTISKTKGQPREPQVYTLPPSREEMTKNQVSLTCLVKGFYPSDIAVEWESNGQPENNYKTTPPMLDSDGSFFLYSKLTVDKSRWQQGNVFSCSVMHEALHNHYTQKSLSLSPGK
light: DIVLTQSPASLAVSPGQRATITCRANKSVSTSTYNYLHWYQQKPGQPPKLLIYLASNLASGVPARFSGSGSGTDFTLTINPVEANDTANYYCQHSRDLPPTFGQGTKLEIKRTVAAPSVFIFPPSDEQLKSGTASVVCLLNNFYPREAKVQWKVDNALQSGNSQESVTEQDSKDSTYSLSSTLTLSKADYEKHKVYACEVTHQGLSSPVTKSFNRGEC
notes: as for B3
Activity of inhibition of MKN45 cell proliferation, IC50 [3]: 0.52 nM | EC50 [4]: 0.13 nM | IC50 [5]: 1.42 nM | Kd [6]: 4 nM
